We go through 6 molecules from publication PMC7304070 (Journal of the American Chemical Society, 2020).

Numbered stars: 1 amine (or outer) side, 2 acyl side, 3 side chain; on linkers, the order of the positions; unused ones are H or OH. Bridge positions count the residues as written; N and C are the ends. Square brackets hold non-standard residues; d marks the D form. Ends that are not written are not given here. Bis(1,2,3triazol4ylCH2)ether = c1c(COCc2cn([*:2])nn2)nnn1[*:1]; Aha = [N-]=[N+]=NCC[C@H](N)C(=O)O

In assay [1] the target is biotinylated MDM2 truncate (residues 10-118) (UniProt Q00987 10-118, biotin (NHS-PEG4-Biotin)). Put plainly: BLI. Background: In BLI a coated tip is dipped into the sample, and binding shifts an interference pattern.
The target of assay [2] is AlexaFluor647 tagged MDM2-GST (UniProt Q00987 1-491, AlexaFluor647 label). As to the kind of experiment: flow cytometry on cells. (In general: A flow cytometer gives signals particle by particle.)
AlexaFluor647 tagged MDM2-GST, sequence (Q00987 whole entry): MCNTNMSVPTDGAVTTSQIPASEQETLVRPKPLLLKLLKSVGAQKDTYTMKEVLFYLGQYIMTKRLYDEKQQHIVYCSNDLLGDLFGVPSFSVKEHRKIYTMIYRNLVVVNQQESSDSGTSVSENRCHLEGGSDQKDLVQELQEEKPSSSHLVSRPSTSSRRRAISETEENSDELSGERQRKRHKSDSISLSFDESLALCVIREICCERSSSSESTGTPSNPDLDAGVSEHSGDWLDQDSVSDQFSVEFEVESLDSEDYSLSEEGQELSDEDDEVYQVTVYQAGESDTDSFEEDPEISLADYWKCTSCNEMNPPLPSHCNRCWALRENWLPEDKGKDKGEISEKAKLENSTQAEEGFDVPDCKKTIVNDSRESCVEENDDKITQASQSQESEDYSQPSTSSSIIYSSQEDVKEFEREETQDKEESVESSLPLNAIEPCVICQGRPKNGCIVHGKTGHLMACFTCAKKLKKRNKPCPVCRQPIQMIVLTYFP

biotinylated MDM2 truncate (residues 10-118), sequence (Q00987 10-118): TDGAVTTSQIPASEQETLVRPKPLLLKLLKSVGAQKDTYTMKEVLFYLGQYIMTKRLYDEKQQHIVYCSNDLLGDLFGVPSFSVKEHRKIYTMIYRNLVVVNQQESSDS

A word on the Kd: it is the free concentration of one partner at which half of the binding sites on the other are occupied at equilibrium, for simple one-to-one binding. For the molecule GGTF[Aha]GYWADL[Aha]AF-NH2 [SPD-M3-G1, synthetic, non-stabilized], in assay [1], the equilibrium dissociation constant (Kd) came out at 21 nM.
As for VLSF[Aha]DYWNLL[Aha]GS (triazole 5-12 via Bis(1,2,3triazol4ylCH2)ether) [SPD-M3-V1, displayed on the bacterial surface, stabilized], the dissociation constant Kd in assay [2] came out at 9.8 ± 3.4 nM.
As for GGTF[Aha]GYWADL[Aha]AF-NH2 (triazole 5-12 via Bis(1,2,3triazol4ylCH2)ether) [SPD-M3-G1, synthetic, stabilized], in assay [1], the affinity, expressed as Kd, was 5.1 nM.
As for VLSF[Aha]DYWNLL[Aha]GS [SPD-M3-V1, displayed on the bacterial surface, non-stabilized], the Kd in assay [2] stood at 64 ± 33 nM.
As to VLSF[Aha]DYWNLL[Aha]GS-NH2 (triazole 5-12 via Bis(1,2,3triazol4ylCH2)ether) [SPD-M3-V1, synthetic, stabilized], the dissociation constant (Kd) in assay [1] is 14 nM.
In assay [1], VLSF[Aha]DYWNLL[Aha]GS-NH2 [SPD-M3-V1, synthetic, non-stabilized] had a Kd of 131 nM.
